Measurements taken from patent US20090317396A1 (AJOU UNIVERSITY INDUSTRY ACADEMIC COOPERATION FOUNDATION, published 2009).

T1: DcR2 (UniProt Q9UBN6 56-211)
T1 construct: also called death decoy receptor 2
T1 sequence (looked up): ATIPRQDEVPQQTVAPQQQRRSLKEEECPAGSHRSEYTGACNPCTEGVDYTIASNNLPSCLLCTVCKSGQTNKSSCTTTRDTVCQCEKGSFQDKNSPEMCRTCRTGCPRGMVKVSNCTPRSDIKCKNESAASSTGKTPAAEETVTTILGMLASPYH

T2: TNFR2 (UniProt P20333 23-257)
T2 sequence (looked up): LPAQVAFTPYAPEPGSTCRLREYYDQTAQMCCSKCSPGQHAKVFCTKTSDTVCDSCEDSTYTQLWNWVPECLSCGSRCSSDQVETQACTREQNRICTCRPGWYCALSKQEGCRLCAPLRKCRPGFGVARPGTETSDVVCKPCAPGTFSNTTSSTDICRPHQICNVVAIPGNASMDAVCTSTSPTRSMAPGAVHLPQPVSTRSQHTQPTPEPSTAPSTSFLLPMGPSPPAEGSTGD

T3: CD95 (UniProt P25445 26-173)
T3 sequence (looked up): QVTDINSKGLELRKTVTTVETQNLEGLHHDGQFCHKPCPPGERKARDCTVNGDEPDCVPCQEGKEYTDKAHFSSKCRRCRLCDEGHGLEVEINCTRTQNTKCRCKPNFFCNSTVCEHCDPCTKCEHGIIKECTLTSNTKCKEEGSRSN

T4: death decoy receptor 1 (DcR1) (UniProt O14798 26-221, limits assumed)
T4 sequence (looked up): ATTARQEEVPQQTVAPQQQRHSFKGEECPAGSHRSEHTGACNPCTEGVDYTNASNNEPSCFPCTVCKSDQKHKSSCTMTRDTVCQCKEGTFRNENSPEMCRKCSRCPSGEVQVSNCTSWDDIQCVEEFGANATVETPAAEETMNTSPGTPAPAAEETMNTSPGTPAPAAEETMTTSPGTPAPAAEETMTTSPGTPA

T5: TNFR1 (UniProt P19438 30-211, limits assumed)
T5 sequence (looked up): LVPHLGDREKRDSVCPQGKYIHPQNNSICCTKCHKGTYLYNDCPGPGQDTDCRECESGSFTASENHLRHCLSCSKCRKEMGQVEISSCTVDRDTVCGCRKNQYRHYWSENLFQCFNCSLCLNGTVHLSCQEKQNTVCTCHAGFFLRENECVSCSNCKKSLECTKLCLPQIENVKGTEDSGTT


Legend:
DcR2 = biological target: T1, DcR2; test: SPR (Biacore 2000), antigen immobilised on CM5 chip
Experimental: (§1) The binding affinity of the anti-DR5 scFv antibody to DR5, and the cross-reactivities of the antibody with other antigens, DcR1, DcR2, DR4, TNFR1, TNFR2 and CD95 were determined by Biacore 2000 SPR (surface plasmon resonance) biosensor (Pharmacia, Sweden), respectively.

death receptor 4 (DR4) [1] = biological target: T6, death receptor 4 (DR4) (UniProt O00220 24-239, limits assumed); test: as above
T6 construct: also called TRAIL receptor 1
Experimental: as §1

TNFR2 = biological target: T2, TNFR2; test: as above
Experimental: as §1

death receptor 5 (DR5) = biological target: T7, death receptor 5 (DR5) (UniProt O14763 52-182, limits assumed); test: SPR (Biacore 2000), DR5 immobilised on CM5 chip, scFv injected, 25° C.
T7 construct: Purified antigen immobilised on CM5 chip or coated on ELISA plates; also called TRAIL receptor 2; TRICK2
Experimental: as §1

CD95 [2] = biological target: T3, CD95; test: SPR (Biacore 2000): CD95 immobilised on a CM5 chip, HW1 injected
Experimental: as §1

[3] = biological target: T4, death decoy receptor 1 (DcR1); test: SPR (Biacore 2000): DcR1 immobilised on a CM5 chip, HW1 injected
Experimental: as §1

TNFR1 [4] = biological target: T5, TNFR1; test: SPR (Biacore 2000): TNFR1 immobilised on a CM5 chip, HW1 injected
Experimental: as §1

death receptor 4 (DR4) [5] = biological target: T6, death receptor 4 (DR4); test: SPR (Biacore 2000): DR4 immobilised on a CM5 chip, HW6 injected
Experimental: as §1

CD95 [6] = biological target: T3, CD95; test: SPR (Biacore 2000): CD95 immobilised on a CM5 chip, HW6 injected
Experimental: as §1

[7] = biological target: T4, death decoy receptor 1 (DcR1); test: SPR (Biacore 2000): DcR1 immobilised on a CM5 chip, HW6 injected
Experimental: as §1

TNFR1 [8] = biological target: T5, TNFR1; test: SPR (Biacore 2000): TNFR1 immobilised on a CM5 chip, HW6 injected
Experimental: as §1

T7 sequence (O14763 52-182 limits assumed): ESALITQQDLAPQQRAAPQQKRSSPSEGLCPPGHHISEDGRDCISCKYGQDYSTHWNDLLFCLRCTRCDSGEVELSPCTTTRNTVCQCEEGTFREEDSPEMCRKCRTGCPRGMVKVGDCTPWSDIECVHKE
T6 sequence (O00220 24-239 limits assumed): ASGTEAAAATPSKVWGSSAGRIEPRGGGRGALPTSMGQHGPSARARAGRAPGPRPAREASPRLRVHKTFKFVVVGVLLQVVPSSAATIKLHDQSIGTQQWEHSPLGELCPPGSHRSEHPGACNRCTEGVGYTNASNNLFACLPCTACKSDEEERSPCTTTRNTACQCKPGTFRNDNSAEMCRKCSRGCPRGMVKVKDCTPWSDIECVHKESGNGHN

binding result (DcR2)	binding result (TNFR2)	binding result (CD95 [2])	binding result (TNFR1 [4])	binding result (CD95 [6])	binding result (TNFR1 [8])	Binder	binding result (death receptor 4 (DR4) [1])	Kd (death receptor 5 (DR5)) [nM]	koff (death receptor 5 (DR5)) [s⁻¹]	kon (death receptor 5 (DR5)) [M⁻¹ s⁻¹]	binding result [3]	binding result (death receptor 4 (DR4) [5])	binding result [7]
no binding (tested: up to 10 µM)	no binding (tested: up to 10 µM)	no binding	no binding	–	–	HW1 anti-DR5 scFv antibody (scFv, Human scFv expressed in E. coli periplasm (PelB signal removed on export), purified, monomeric; not shown: C-terminal Flag tag from vector pKJ1; C-terminal 6xHis tag from vector pKJ1) scFv: QVQLQQSGPGLVKPSQTLSLTCAISGDSVSSTTVAWDWIRQSPSRGLEWLGRTYYRSKWYNEYAVSVKSRITINVDTSKNQISLQLNSVTPEDTAVYYCAREPDAGRGAFDIWGQGTTVTSPLRWGRFGWRGLGRGWLRSPVTQSPGTLSLSPGERATLSCRASQSVSSSHLAWYQQKPGQAPRLLIYGASSRATGIPDRFSGSGSGTDFTLTISSLEPEDFAVYYCQQRSNWPPRAVFGQGTRLEIK	no binding (tested: up to 10 µM)	202	0.00471	23300	no binding	–	–
no binding (tested: up to 10 µM)	no binding (tested: up to 10 µM)	–	–	no binding	no binding	HW6 anti-DR5 scFv antibody (scFv, Human scFv expressed in E. coli periplasm, purified, monomeric; not shown: C-terminal Flag tag from vector pKJ1; C-terminal 6xHis tag from vector pKJ1) scFv: QVQLQQSGPGRVQPSQTLSLTCAISGDSVSNNNAAWYWIRQSPSRGLEWLGRTYYRSKWYNDYAVSVKSRITISPDTSKNQFSLQLNSVTPEDTAVYYCARRGDGNSYFDYWGQGTLVTVSSGILRWGRFGWRGLGRGWLEIVLTQSPGTLSLSPGERATLSCRASQSVSSGYVSWYRQKPGQAPRLLIYGASTRATGIPDRFSGSGSGTDFTLTISRLEPEDFAVYYCHQYGSSPNTYGQGTKVGIK	–	54.5	0.00688	126000	–	no binding	no binding
